Test results taken from patent US20150344570A1 (published 2015).

T1: FcγRIIb (human, UniProt P31994 43-217)
T1 construct: extracellular domain; also called FcgRIIb; 2b
T1 sequence (looked up): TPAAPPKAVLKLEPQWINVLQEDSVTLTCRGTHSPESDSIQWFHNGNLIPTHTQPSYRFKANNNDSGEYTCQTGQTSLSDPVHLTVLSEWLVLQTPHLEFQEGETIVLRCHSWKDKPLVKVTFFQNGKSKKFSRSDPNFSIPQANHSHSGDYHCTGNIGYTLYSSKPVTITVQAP


Assays:
FcγRIIIa [1] = biological target: T2, FcγRIIIa (human, UniProt P08637 17-208); assay: SPR (Biacore), relative binding
T2 construct: extracellular domain; also called FcgRIIIa; 3a
T2 sequence (P08637 17-208): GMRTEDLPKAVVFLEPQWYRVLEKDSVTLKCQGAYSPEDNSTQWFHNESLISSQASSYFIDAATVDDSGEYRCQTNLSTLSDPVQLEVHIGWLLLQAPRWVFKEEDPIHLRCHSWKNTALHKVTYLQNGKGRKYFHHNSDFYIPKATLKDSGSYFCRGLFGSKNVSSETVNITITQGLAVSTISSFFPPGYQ

FcγRIIb = biological target: T1, FcγRIIb; assay: SPR (Biacore), relative binding
FcγRIIIa [2] = biological target: T2, FcγRIIIa; assay: SPR; He/Con_3a divided by He/Con_2b (FcγRIIIa against FcγRIIb)

Row | Binder | He/Con_3a (FcγRIIIa [1]) | He/Con_2b (FcγRIIb) | He_3a/2b (IIIa/IIb) (FcγRIIIa [2])
1 | GpH7-A5/GpH7-B3 variant V266_08L/GpL16-k0 (antibody, human IgG1, kappa, mutation in the GpH7-B3 chain only; also called He Ab) heavy 1: not shown heavy 2: not shown light: DIVMTQSPLSLPVTPGEPASISCQASESLVHSNRNTYLHWYLQKPGQSPQLLIYKVSNRFSGVPDRFSGSGSGTDFTLKISRVEAEDVGVYYCSQNTHVPPTFGQGTKVEIERTVAAPSVFIFPPSDEQLKSGTASVVCLLNNFYPREAKVQWKVDNALQSGNSQESVTEQDSKDSTYSLSSTLTLSKADYEKHKVYACEVTHQGLSSPVTKSFNRGEC | 118 % of GpH7-A5/GpH7-B3/GpL16-k0 | 236 % of GpH7-A5/GpH7-B3/GpL16-k0 | 0.5 ratio
2 | GpH7-A5/GpH7-B3 variant S267_05P/GpL16-k0 (antibody, human IgG1, kappa, mutation in the GpH7-B3 chain only; also called He Ab) heavy 1: not shown heavy 2: not shown light: DIVMTQSPLSLPVTPGEPASISCQASESLVHSNRNTYLHWYLQKPGQSPQLLIYKVSNRFSGVPDRFSGSGSGTDFTLKISRVEAEDVGVYYCSQNTHVPPTFGQGTKVEIERTVAAPSVFIFPPSDEQLKSGTASVVCLLNNFYPREAKVQWKVDNALQSGNSQESVTEQDSKDSTYSLSSTLTLSKADYEKHKVYACEVTHQGLSSPVTKSFNRGEC | 15.7 % of GpH7-A5/GpH7-B3/GpL16-k0 | 31.5 % of GpH7-A5/GpH7-B3/GpL16-k0 | 0.5 ratio
3 | GpH7-A5/GpH7-B3 variant S267_07I/GpL16-k0 (antibody, human IgG1, kappa, mutation in the GpH7-B3 chain only; also called He Ab) heavy 1: not shown heavy 2: not shown light: DIVMTQSPLSLPVTPGEPASISCQASESLVHSNRNTYLHWYLQKPGQSPQLLIYKVSNRFSGVPDRFSGSGSGTDFTLKISRVEAEDVGVYYCSQNTHVPPTFGQGTKVEIERTVAAPSVFIFPPSDEQLKSGTASVVCLLNNFYPREAKVQWKVDNALQSGNSQESVTEQDSKDSTYSLSSTLTLSKADYEKHKVYACEVTHQGLSSPVTKSFNRGEC | 25.2 % of GpH7-A5/GpH7-B3/GpL16-k0 | 192 % of GpH7-A5/GpH7-B3/GpL16-k0 | 0.13 ratio
4 | GpH7-A5/GpH7-B3 variant V266_04F/GpL16-k0 (antibody, human IgG1, kappa, mutation in the GpH7-B3 chain only; also called He Ab) heavy 1: not shown heavy 2: not shown light: DIVMTQSPLSLPVTPGEPASISCQASESLVHSNRNTYLHWYLQKPGQSPQLLIYKVSNRFSGVPDRFSGSGSGTDFTLKISRVEAEDVGVYYCSQNTHVPPTFGQGTKVEIERTVAAPSVFIFPPSDEQLKSGTASVVCLLNNFYPREAKVQWKVDNALQSGNSQESVTEQDSKDSTYSLSSTLTLSKADYEKHKVYACEVTHQGLSSPVTKSFNRGEC | 34.7 % of GpH7-A5/GpH7-B3/GpL16-k0 | 57.6 % of GpH7-A5/GpH7-B3/GpL16-k0 | 0.6 ratio
5 | GpH7-A5/GpH7-B3 variant V266_06M/GpL16-k0 (antibody, human IgG1, kappa, mutation in the GpH7-B3 chain only; also called He Ab) heavy 1: not shown heavy 2: not shown light: DIVMTQSPLSLPVTPGEPASISCQASESLVHSNRNTYLHWYLQKPGQSPQLLIYKVSNRFSGVPDRFSGSGSGTDFTLKISRVEAEDVGVYYCSQNTHVPPTFGQGTKVEIERTVAAPSVFIFPPSDEQLKSGTASVVCLLNNFYPREAKVQWKVDNALQSGNSQESVTEQDSKDSTYSLSSTLTLSKADYEKHKVYACEVTHQGLSSPVTKSFNRGEC | 85.8 % of GpH7-A5/GpH7-B3/GpL16-k0 | 251 % of GpH7-A5/GpH7-B3/GpL16-k0 | 0.34 ratio
6 | GpH7-A5/GpH7-B3 variant V266_10E/GpL16-k0 (antibody, human IgG1, kappa, mutation in the GpH7-B3 chain only; also called He Ab) heavy 1: not shown heavy 2: not shown light: DIVMTQSPLSLPVTPGEPASISCQASESLVHSNRNTYLHWYLQKPGQSPQLLIYKVSNRFSGVPDRFSGSGSGTDFTLKISRVEAEDVGVYYCSQNTHVPPTFGQGTKVEIERTVAAPSVFIFPPSDEQLKSGTASVVCLLNNFYPREAKVQWKVDNALQSGNSQESVTEQDSKDSTYSLSSTLTLSKADYEKHKVYACEVTHQGLSSPVTKSFNRGEC | 4.1 % of GpH7-A5/GpH7-B3/GpL16-k0 | 15.2 % of GpH7-A5/GpH7-B3/GpL16-k0 | 0.27 ratio

Second part, the binder after the results:

Row | He/Con_3a (FcγRIIIa [1]) | He/Con_2b (FcγRIIb) | He_3a/2b (IIIa/IIb) (FcγRIIIa [2]) | Binder
7 | 34.7 % of GpH7-A5/GpH7-B3/GpL16-k0 | 89.2 % of GpH7-A5/GpH7-B3/GpL16-k0 | 0.39 ratio | GpH7-A5/GpH7-B3 variant V266_19Q/GpL16-k0 (antibody, human IgG1, kappa, mutation in the GpH7-B3 chain only; also called He Ab) heavy 1: not shown heavy 2: not shown light: DIVMTQSPLSLPVTPGEPASISCQASESLVHSNRNTYLHWYLQKPGQSPQLLIYKVSNRFSGVPDRFSGSGSGTDFTLKISRVEAEDVGVYYCSQNTHVPPTFGQGTKVEIERTVAAPSVFIFPPSDEQLKSGTASVVCLLNNFYPREAKVQWKVDNALQSGNSQESVTEQDSKDSTYSLSSTLTLSKADYEKHKVYACEVTHQGLSSPVTKSFNRGEC
8 | 21.3 % of GpH7-A5/GpH7-B3/GpL16-k0 | 57.2 % of GpH7-A5/GpH7-B3/GpL16-k0 | 0.37 ratio | GpH7-A5/GpH7-B3 variant V266_16H/GpL16-k0 (antibody, human IgG1, kappa, mutation in the GpH7-B3 chain only; also called He Ab) heavy 1: not shown heavy 2: not shown light: DIVMTQSPLSLPVTPGEPASISCQASESLVHSNRNTYLHWYLQKPGQSPQLLIYKVSNRFSGVPDRFSGSGSGTDFTLKISRVEAEDVGVYYCSQNTHVPPTFGQGTKVEIERTVAAPSVFIFPPSDEQLKSGTASVVCLLNNFYPREAKVQWKVDNALQSGNSQESVTEQDSKDSTYSLSSTLTLSKADYEKHKVYACEVTHQGLSSPVTKSFNRGEC
9 | -0.7 % of GpH7-A5/GpH7-B3/GpL16-k0 | 1 % of GpH7-A5/GpH7-B3/GpL16-k0 | -0.7 ratio | GpH7-A5/GpH7-B3 variant V266_11K/GpL16-k0 (antibody, human IgG1, kappa, mutation in the GpH7-B3 chain only; also called He Ab) heavy 1: not shown heavy 2: not shown light: DIVMTQSPLSLPVTPGEPASISCQASESLVHSNRNTYLHWYLQKPGQSPQLLIYKVSNRFSGVPDRFSGSGSGTDFTLKISRVEAEDVGVYYCSQNTHVPPTFGQGTKVEIERTVAAPSVFIFPPSDEQLKSGTASVVCLLNNFYPREAKVQWKVDNALQSGNSQESVTEQDSKDSTYSLSSTLTLSKADYEKHKVYACEVTHQGLSSPVTKSFNRGEC
10 | 30.4 % of GpH7-A5/GpH7-B3/GpL16-k0 | 69.7 % of GpH7-A5/GpH7-B3/GpL16-k0 | 0.44 ratio | GpH7-A5/GpH7-B3 variant V266_18N/GpL16-k0 (antibody, human IgG1, kappa, mutation in the GpH7-B3 chain only; also called He Ab) heavy 1: not shown heavy 2: not shown light: DIVMTQSPLSLPVTPGEPASISCQASESLVHSNRNTYLHWYLQKPGQSPQLLIYKVSNRFSGVPDRFSGSGSGTDFTLKISRVEAEDVGVYYCSQNTHVPPTFGQGTKVEIERTVAAPSVFIFPPSDEQLKSGTASVVCLLNNFYPREAKVQWKVDNALQSGNSQESVTEQDSKDSTYSLSSTLTLSKADYEKHKVYACEVTHQGLSSPVTKSFNRGEC
